Results published in publication PMC6515479, “An Investigation on Glucuronidation Metabolite Identification, Isozyme Contribution, and Species Differences of GL-V9 In Vitro and In Vivo” (Molecules, 2019).

Experiments:
Type in all cases: in vitro ADME, human
[1] = substrate: COc1c(OCCCCN2CCCC2)cc(O)c2c(=O)cc(-c3ccccc3)oc12; assay: Recombinant enzyme kinetics of GL-V9 glucuronidation, rUGT1A9; details: other: formation of 5-O-glucuronide GL-V9, rUGT1A9, protein 0.06 mg/mL, 1 h at 37 °C, mean ± SD, n = 3, pH 7.4
[2] = substrate: COc1c(OCCCCN2CCCC2)cc(O)c2c(=O)cc(-c3ccccc3)oc12; assay: Recombinant enzyme kinetics of GL-V9 glucuronidation, rUGT1A8; details: other: formation of 5-O-glucuronide GL-V9, rUGT1A8, protein 0.06 mg/mL, 1 h at 37 °C, mean ± SD, n = 3, pH 7.4
Method: [The source words this procedure for another target and says it was used here with some conditions changed.] (§1) The composition of the incubation system (200 μL) contained liver microsomes of different species (0.1 mg protein/mL), 5 mM saccharolactone (D-saccharic acid 1,4-lactone monohydrate), 10 mM MgCl2, alamethicin (50 μg/mg protein), Tris-HCl buffer (50 mM, pH 7.4) and GL-V9 (1 μM). After 5 min of preincubation at 37 °C, UDPGA (5 mM) was added to initiate the phase II reaction. Control incubation samples were performed without UDPGA or without substrates (GL-V9). The reaction was terminated by addition of ice-cold methanol (three volumes) after incubation for 1 h at 37 °C. Samples were vortexed, centrifuged at 21,500× g for 10 min and then stored at 4 °C until HPLC-UV-TripleTOF analysis. To confirm that these metabolites are conjugates resulting from glucuronidation reaction, enzymatic hydrolysis of samples was processed. β-glucuronidase (100 KU, Sigma) was added and the hydrolysis was performed overnight at 37 °C. The control samples were carried out without β-glucuronidase under the same condition.
(§2) Rates of the glucuronidation of GL-V9 were described as amounts of glucuronides formed per minute per milligram (pmol/min/mg). The calculation model of kinetic parameters was selected by the profile of Eadie-Hofstee plots. It often includes three possibilities: (1) the Eadie-Hofstee plot was linear, the formation rates of glucuronides (V) at different substrate concentrations (C) were fit to the standard Michaelis-Menten calculation of GraphPad Prism (version 6.02, GraphPad Software Inc., Guildford, Surrey, UK); (2) the Eadie-Hofstee plot was atypical kinetic-autoactivation, the rates and concentration were fit with the allosteric sigmoidal function of GraphPad Prism; (3) the Eadie-Hofstee plot was atypical kinetic-biphasic, the rates and concentration were fit with the […] of GraphPad Prism.

[3] = substrate: COc1c(OCCCCN2CCCC2)cc(O)c2c(=O)cc(-c3ccccc3)oc12; assay: Recombinant enzyme kinetics of GL-V9 glucuronidation, rUGT1A7; details: other: formation of 5-O-glucuronide GL-V9, rUGT1A7, protein 0.05 mg/mL, 1 h at 37 °C, mean ± SD, n = 3, pH 7.4
Method: [The source words this procedure for another target and says it was used here with some conditions changed.] as §1, §2

B1: rUGT1A9 (Homo sapiens) (protein)
chain: GKLLVVPMDGSHWFTMRSVVEKLILRGHEVVVVMPEVSWQLGRSLNCTVKTYSTSYTLEDLDREFKAFAHAQWKAQVRSIYSLLMGSYNDIFDLFFSNCRSLFKDKKLVEYLKESSFDAVFLDPFDNCGLIVAKYFSLPSVVFARGILCHYLEEGAQCPAPLSYVPRILLGFSDAMTFKERVRNHIMHLEEHLLCHRFFKNALEIASEILQTPVTEYDLYSHTSIWLLRTDFVLDYPKPVMPNMIFIGGINCHQGKPLPMEFEAYINASGEHGIVVFSLGSMVSEIPEKKAMAIADALGKIPQTVLWRYTGTRPSNLANNTILVKWLPQNDLLGHPMTRAFITHAGSHGVYESICNGVPMVMMPLFGDQMDNAKRMETKGAGVTLNVLEMTSEDLENALKAVINDKSYKENIMRLSSLHKDRPVEPLDLAVFWVEFVMRHKGAPHLRPAAHDLTWYQYHSLDVIGFLLAVVLTVAFITFKCCAYGYRKCLGKKGRVKKAHKSKTH
notes: purchased Corning (Woburn, MA, USA)
With B1 the Km [1] was 4.72 ± 0.28 µM and the Vmax [1] was 0.000148 µmol/min/mg.

B2: rUGT1A8 (Homo sapiens) (protein)
chain: GKLLVVPMDGSHWFTMQSVVEKLILRGHEVVVVMPEVSWQLGKSLNCTVKTYSTSYTLEDLDREFMDFADAQWKAQVRSLFSLFLSSSNGFFNLFFSHCRSLFNDRKLVEYLKESSFDAVFLDPFDACGLIVAKYFSLPSVVFARGIACHYLEEGAQCPAPLSYVPRILLGFSDAMTFKERVRNHIMHLEEHLFCQYFSKNALEIASEILQTPVTAYDLYSHTSIWLLRTDFVLDYPKPVMPNMIFIGGINCHQGKPLPMEFEAYINASGEHGIVVFSLGSMVSEIPEKKAMAIADALGKIPQTVLWRYTGTRPSNLANNTILVKWLPQNDLLGHPMTRAFITHAGSHGVYESICNGVPMVMMPLFGDQMDNAKRMETKGAGVTLNVLEMTSEDLENALKAVINDKSYKENIMRLSSLHKDRPVEPLDLAVFWVEFVMRHKGAPHLRPAAHDLTWYQYHSLDVIGFLLAVVLTVAFITFKCCAYGYRKCLGKKGRVKKAHKSKTH
notes: as for B1
With B2 the Km [2] was 13.92 ± 1.05 µM, the Vmax [2] was 5.06e-05 µmol/min/mg and the Vmax/Km [2] was 3.64 µL/min/mg.

B3: rUGT1A7 (Homo sapiens) (protein)
chain: GKLLVVPMDGSHWFTMQSVVEKLILRGHEVVVVMPEVSWQLGRSLNCTVKTYSTSYTLEDQDREFMVFADARWTAPLRSAFSLLTSSSNGIFDLFFSNCRSLFNDRKLVEYLKESCFDAVFLDPFDACGLIVAKYFSLPSVVFARGIFCHYLEEGAQCPAPLSYVPRLLLGFSDAMTFKERVWNHIMHLEEHLFCPYFFKNVLEIASEILQTPVTAYDLYSHTSIWLLRTDFVLEYPKPVMPNMIFIGGINCHQGKPVPMEFEAYINASGEHGIVVFSLGSMVSEIPEKKAMAIADALGKIPQTVLWRYTGTRPSNLANNTILVKWLPQNDLLGHPMTRAFITHAGSHGVYESICNGVPMVMMPLFGDQMDNAKRMETKGAGVTLNVLEMTSEDLENALKAVINDKSYKENIMRLSSLHKDRPVEPLDLAVFWVEFVMRHKGAPHLRPAAHDLTWYQYHSLDVIGFLLAVVLTVAFITFKCCAYGYRKCLGKKGRVKKAHKSKTH
notes: as for B1
B3 was tested, and the Km [3] was 3.25 ± 0.29 µM, the Vmax [3] was 3.11e-05 µmol/min/mg and the Vmax/Km [3] was 9.58 µL/min/mg.
